Entries after “also recorded” stand apart in the source; their conditions may differ. Where no end group is shown, it is not given here. [ ]: non-standard residue; d: D form. pT = C[C@@H](OP(=O)(O)O)[C@H](N)C(=O)O; pS = N[C@@H](COP(=O)(O)O)C(=O)O
Tests used:
GST-GSK3β [1] = molecular target: T1, GST-GSK3β (Homo sapiens, UniProt P49841); assay: In vitro GSK3β kinase assay with inhibitory peptides (GSM substrate); type: biochemical; conditions: for GSK3β activity in the presence of peptide: in vitro kinase reaction, FIG. 3G
T1 construct: made in house
Experimental: (§1) Active GST-GSK3β and GST-GSK3β-T^43A and GST-GSK3β-T^390 mutants were expressed and purified as described in (29). The specific activity of the wildtype and the mutants was determined using the GSM substrate peptide (Upstate, Lake Placid, N.Y.) and were as follows: GST-GSK3β (91 μmol/μg×min) and GST-GSK3β-T^43A (53 μmol/μg×min) and GST-GSK3β-T^390A (65 μmol/μg×min). In vitro GSK3β kinase assays were performed by incubating purified active wildtype GST-GSK3β or GST-GSK3β-T^43A and GST-GSK3β-T^390A mutants (400 ng) at 30° C. for 10 minutes in kinase buffer supplemented with 1 mM ATP containing [γ-^32P] ATP and GSM substrate peptide (62.5 μM) (Upstate, Lake Placid, N.Y.). Reactions were terminated by spotting onto P81 filters. Filters were washed extensively and counted in a scintillation counter. To examine the effect of p38 MAPK and Akt on GSK3β activity, purified active GSK3β or mutants were preincubated for 15 minutes at 30° C. with 500 ng recombinant active p38 MAPK or active Akt (Cell Signaling, Beverly, Mass.) prior to performing the GSK3β activity assay as described above.
For peptide inhibition assays, Phospho-S^9 (GRPRTTS(PO3H2)FAE) (SEQ ID NO:95) (20). Phospho-[…] (RIQAAAST(PO3H2)PTN) (SEQ ID NO:7) and non-phospho-T^390 (RIQAAASTPTN) (SEQ ID NO:96) peptides were synthesized and purified by UVM protein Core Facility. In vitro kinase assays were performed with purified GST-GSK3β (400 ng) in Kinase buffer supplement with 1 mM ATP containing [γ-^32P] ATP and the indicated concentrations of GSM and inhibitory peptide.

GSM substrate peptide = assay: Specific activity of active GST-GSK3β wildtype and mutants; type: biochemical
Experimental: as §1

GSK3α = GSK3α (Homo sapiens, UniProt P49840); assay: In vitro GSK3α kinase assay after preincubation with activated p38 MAPK; type: biochemical; conditions: pre-incubated 15 min; FIG. 12
Experimental: Recombinant kinase-active GSK3α was pre-incubated in the reaction buffer alone (GSKα), with activated p38 MAPK or activated Akt (15 min). In vitro GSK3α kinase assays were then performed using GSM as the substrate. Error bars represent SD (n=3).

wild-type GSK3β = molecular target: T2, wild-type GSK3β (Homo sapiens, UniProt P49841); assay: GSK3β activity after preincubation with active p38 MAPK or Akt; type: biochemical; conditions: preincubated 15 minutes at 30° C. with 500 ng kinase; FIG. 3D
T2 construct: made in house
Experimental: as §1

GSK3β-T^390A mutant = molecular target: T3, GSK3β-T^390A mutant (Homo sapiens, UniProt P49841, T390A); assay: as above; type: biochemical; conditions: preincubated 15 minutes at 30° C. with 500 ng kinase; FIG. 3F
T3 construct: made in house
Experimental: as §1

GSK3β-T^43A mutant = molecular target: T4, GSK3β-T^43A mutant (Homo sapiens, UniProt P49841, T43A); assay: as above; type: biochemical; conditions: preincubated 15 minutes at 30° C. with 500 ng kinase; FIG. 3E
T4 construct: made in house
Experimental: as §1

GST-GSK3β [2] = molecular target: T1, GST-GSK3β; conditions: references 20, 21; cited from earlier work
[3] = test system: phospho-Ser^9 GSK3β in 293T cells; assay: Western blot of phospho-Ser^9 GSK3β in treated 293T cells; type: cell-based; conditions: 40 minutes, SB203580 5 μM, Wortmanin 1 μM, FIG. 7
Experimental: (§2) Thymocytes were isolated from wildtype, Rag^−/− or MKK6(Glu) transgenic mice.
(§3) Whole cell extracts were prepared in Triton lysis buffer (TLB) as previously described (25, 26). Nuclear extracts were made from cells as previously described (27). Immunoprecipitations and Western blotting was performed as described in (8). Anti-Akt, anti-p38 MAPK, anti-Lef, anti-c-Myc and anti-Histone (Santa Cruz Biotechnology, Santa Cruz, Calif.), anti-GSK3β, anti-β-catenin, anti-phospho-p38 MAPK and antiphospho-S^9 (Cell Signaling, Beverly, Mass.) and Anti-Flag (Stratagene, La Jolla, Calif.) were used for Western blot analysis. […] Anti-Akt, anti-p38 MAPK and Anti-GSK3β were used for immunoprecipitations. Anti-rabbit-HRP, anti-mouse-HRP (Jackson ImmunoResearch Laboratories, West Grove, Pa.) and anti-goat-HRP (Santa Cruz Biotechnology, Santa Cruz, Calif.) were used as secondary antibodies.

phospho-Ser^389 GSK3β = assay: In vivo inhibition of p38 MAPK, phospho-Ser^389 GSK3β in thymocytes and brain; design: species or system mouse; conditions: wildtype mice i.p., 18 hours, FIG. 4L
Experimental: as §2, §3

[4] = test system: phosphorylation of GSK3β at Ser^389; assay: Western blot of phospho-Ser^389 in mouse GSK3β-transfected 293T cells; type: cell-based; conditions: FIG. 4D
Experimental: (§4) Thymocytes were isolated from wildtype, Rag^−/− or MKK6(Glu) transgenic mice. 293T cells were transiently transfected with the indicated expression constructs using calcium phosphate. When specified, 293T cells were treated with SB203580 (5 μM) and Wortmanin (1 μM) (Calbiochem, San Diego, Calif.). Wildtype, GSK3α^−/− and GSK3β^−/− ES cells (17), as well as WT and MKK3^−/−MKK6^−/− MEF (22) have been previously described, and were also treated with SB203580 as described above for the indicated periods of time. For in vivo inhibition of p38 MAPK, wildtype mice were intraperitoneally (i.p.) injected with SB203580 or vehicle alone, and after 18 hours brain and thymocytes were harvested to prepare whole cell lysates.
(§5) Whole cell extracts were prepared in Triton lysis buffer (TLB) as previously described (25, 26). Nuclear extracts were made from cells as previously described (27). Immunoprecipitations and Western blotting was performed as described in (8). Anti-Akt, anti-p38 MAPK, anti-Lef, anti-c-Myc and anti-Histone (Santa Cruz Biotechnology, Santa Cruz, Calif.), anti-GSK3β, anti-β-catenin, anti-phospho-p38 MAPK and antiphospho-S^9 (Cell Signaling, Beverly, Mass.) and Anti-Flag (Stratagene, La Jolla, Calif.) were used for Western blot analysis. The phospho-S^389 GSK3β antibody was made by Proteintech, Chicago, Ill., using N-C-ARIQAAA(phos-S)PPANATA (SEQ ID NO:87) for immunization. […]

β-catenin = assay: Western blot of β-catenin in 293T cells transfected with GSK3β, p38 and MKK6; type: cell-based; conditions: FIG. 4D
Experimental: as §4, §5

p38 MAPK = conditions: SB203580 2.5 μM
Experimental: The reactions were terminated after 30 min at 30° C. by addition of SDS-PAGE sample buffer, separated by SDS-PAGE and transferred to nitrocellulose. Protein was visualized by staining with PonceauS and incorporated ^32P was visualized by autoradiography. In specific experiments, whole cell extracts were first depleted of Akt prior to p38 MAPK immunoprecipitation by being pre-incubated with anti-Akt antibody prebound to protein A-Sepharose followed by one incubation with protein A-sepharose alone.

[5] = test system: phosphorylation of endogenous GSK3β at Ser^389; assay: Western blot of phospho-Ser^389 of endogenous GSK3β in MEFs and ES cells; type: cell-based, mouse; conditions: FIG. 4E-F
Experimental: as §4, §5

T1 sequence (P49841 whole entry): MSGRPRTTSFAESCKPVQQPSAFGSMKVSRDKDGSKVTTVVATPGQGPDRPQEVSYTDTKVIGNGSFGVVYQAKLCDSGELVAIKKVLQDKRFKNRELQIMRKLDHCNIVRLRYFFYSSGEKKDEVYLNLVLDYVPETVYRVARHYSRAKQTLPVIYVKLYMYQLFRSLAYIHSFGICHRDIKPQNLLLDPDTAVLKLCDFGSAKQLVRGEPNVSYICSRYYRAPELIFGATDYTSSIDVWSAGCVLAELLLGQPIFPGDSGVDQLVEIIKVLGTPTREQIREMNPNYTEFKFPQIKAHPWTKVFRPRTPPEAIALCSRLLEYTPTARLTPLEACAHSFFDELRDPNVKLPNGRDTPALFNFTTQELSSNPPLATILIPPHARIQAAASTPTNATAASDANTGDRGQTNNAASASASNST
T2 sequence (P49841 whole entry): as above
T4 sequence (P49841 whole entry T43A): as the sequence (P49841 whole entry) above, with T43A counted along it
Sequence of GSK3α (P49840 whole entry, species assumed): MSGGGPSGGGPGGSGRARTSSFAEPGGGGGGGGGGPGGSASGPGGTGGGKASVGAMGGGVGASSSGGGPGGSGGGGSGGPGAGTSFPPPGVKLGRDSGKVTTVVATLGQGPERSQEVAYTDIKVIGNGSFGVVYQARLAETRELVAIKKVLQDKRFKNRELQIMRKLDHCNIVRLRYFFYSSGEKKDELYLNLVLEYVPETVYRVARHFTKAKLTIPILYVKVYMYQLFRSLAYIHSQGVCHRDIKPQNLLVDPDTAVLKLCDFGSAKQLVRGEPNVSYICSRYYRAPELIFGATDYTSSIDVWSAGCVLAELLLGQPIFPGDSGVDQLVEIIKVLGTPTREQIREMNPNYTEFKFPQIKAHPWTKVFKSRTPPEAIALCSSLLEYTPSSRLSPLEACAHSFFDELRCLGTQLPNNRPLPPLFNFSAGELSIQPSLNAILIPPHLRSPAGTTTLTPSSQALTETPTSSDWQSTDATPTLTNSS
T3 sequence (P49841 whole entry T390A): as the sequence (P49841 whole entry) above, with T390A counted along it

With “RIQAAASTPTN [unphosphorylated-Thr^390 peptide, reference compound]” the “GSK3β activity in the presence of peptide” value (GST-GSK3β [1]) was “did not”.

Molecule “GST-GSK3β-T^43A: purified active GST-GSK3β T^43A mutant” has a specific activity (GSM substrate peptide) of 53 µmol/µg/min.

With “p38 MAPK: recombinant active p38 MAPK (Cell Signaling)” the “effect on GSK3α activity” value (GSK3α) was “did not affect; also recorded: does not inhibit”, the “effect on GSK3β activity” value (wild-type GSK3β) was “inhibited” and the “effect on GSK3β activity” value (GSK3β-T^390A mutant) was “not”. The “effect on GSK3β activity” value (GSK3β-T^43A mutant) was “inhibited”.

Work on “GST-GSK3β: purified active wildtype GST-GSK3β fusion protein” yielded a specific activity (GSM substrate peptide) of 91 µmol/µg/min.

In the case of “GRPRTTS(PO3H2)FAE (GRPRTT[pS]FAE) [phospho-Ser^9 peptide]”, the “inhibition of GSK3β in vitro” value (GST-GSK3β [2]) is listed as “specifically inhibits GSK3β in vitro”.

Molecule “GST-GSK3β-T^390A: purified active GST-GSK3β T^390A mutant” has a specific activity (GSM substrate peptide) of 65 µmol/µg/min.

In the case of COC[C@H]1OC(=O)c2coc3c2[C@@]1(C)C1=C(C3=O)[C@@H]2CCC(=O)[C@@]2(C)C[C@H]1OC(C)=O [Wortmanin], the “phosphorylation of Ser^9 of GSK3β” value [3] is reported as “impaired”.

In the case of “RIQAAAST(PO3H2)PTN (RIQAAAS[pT]PTN) [phospho-Thr^390 peptide]”, the “GSK3β activity in the presence of peptide” value (GST-GSK3β [1]) is reported as “inhibited GSK3β activity” and the “inhibition of GSK3β activity compared with phospho-Ser^9 peptide” value (GST-GSK3β [1]; various concentrations of peptides, FIG. 3H-J) is reported as “as efficiently as the phospho-Ser^9 peptide”.

For C[S+]([O-])c1ccc(-c2nc(-c3ccncc3)c(-c3ccc(F)cc3)[nH]2)cc1 (stereo not drawn) [SB203580], the “levels of phospho-Ser^389 GSK3β” value (phospho-Ser^389 GSK3β; brain) was “reduced”, the “levels of phospho-Ser^389 GSK3β” value (phospho-Ser^389 GSK3β; thymocytes) was “reduced” and the “phosphorylation of Ser^389” value [4] was “abrogated”. The “amount of β-catenin” value (β-catenin) was “decreased”, the “phosphorylation of GSK3β by purified recombinant activated p38 MAPK” value (p38 MAPK; FIG. 2E) was “blocked” and the “phosphorylation of recombinant catalytically-inactive GSK3β by immunoprecipitated p38 MAPK” value (p38 MAPK; p38 MAPK from MKK6 thymocytes or MKK6-transfected 293T cells, FIG. 2C) was “blocked”. The “phosphorylation of endogenous GSK3β at Ser^389” value ([5]; embryonic stem (ES) cells) was “inhibited”, the “phosphorylation of endogenous GSK3β at Ser^389” value ([5]; wild-type mouse embryonic fibroblasts (MEFs)) was “inhibited” and the “phosphorylation of Ser^9 of GSK3β” value [3] was “not affected”.

B1: Akt: recombinant active Akt (Cell Signaling) (protein)
chain: MNDVAIVKEGWLHKRGEYIKTWRPRYFLLKNDGTFIGYKERPQDVDQRESPLNNFSVAQCQLMKTERPRPNTFIIRCLQWTTVIERTFHVETPEEREEWATAIQTVADGLKRQEEETMDFRSGSPSDNSGAEEMEVSLAKPKHRVTMNEFEYLKLLGKGTFGKVILVKEKATGRYYAMKILKKEVIVAKDEVAHTLTENRVLQNSRHPFLTALKYSFQTHDRLCFVMEYANGGELFFHLSRERVFSEDRARFYGAEIVSALDYLHSEKNVVYRDLKLENLMLDKDGHIKITDFGLCKEGIKDGATMKTFCGTPEYLAPEVLEDNDYGRAVDWWGLGVVMYEMMCGRLPFYNQDHEKLFELILMEEIRFPRTLGPEAKSLLSGLLKKDPTQRLGGGSEDAKEIMQHRFFANIVWQDVYEKKLSPPFKPQVTSETDTRYFDEEFTAQMITITPPDQDDSMECVDSERRPHFPQFSYSASGTA
For B1, the “effect on GSK3β activity” value (wild-type GSK3β) was “inhibited”, the “effect on GSK3β activity” value (GSK3β-T^390A mutant) was “inhibited” and the “effect on GSK3β activity” value (GSK3β-T^43A mutant) was “inhibited”.

From patent US10052365B2, “Methods and products relating to GSK3β regulation” (University of Vermont and State Agricultural College, priority 2008, dated 2018)
